The results in this text go back to patent publication US20250361314A1 (SHANGHAI HUAOTA BIOPHARMACEUTICAL, published 2025).

The target of assay [1] is T1, Human CD73 on CHOK1-huCD73-3F4 cells overexpressing CD73 (human, UniProt P21589 27-549).
T1 sequence (looked up): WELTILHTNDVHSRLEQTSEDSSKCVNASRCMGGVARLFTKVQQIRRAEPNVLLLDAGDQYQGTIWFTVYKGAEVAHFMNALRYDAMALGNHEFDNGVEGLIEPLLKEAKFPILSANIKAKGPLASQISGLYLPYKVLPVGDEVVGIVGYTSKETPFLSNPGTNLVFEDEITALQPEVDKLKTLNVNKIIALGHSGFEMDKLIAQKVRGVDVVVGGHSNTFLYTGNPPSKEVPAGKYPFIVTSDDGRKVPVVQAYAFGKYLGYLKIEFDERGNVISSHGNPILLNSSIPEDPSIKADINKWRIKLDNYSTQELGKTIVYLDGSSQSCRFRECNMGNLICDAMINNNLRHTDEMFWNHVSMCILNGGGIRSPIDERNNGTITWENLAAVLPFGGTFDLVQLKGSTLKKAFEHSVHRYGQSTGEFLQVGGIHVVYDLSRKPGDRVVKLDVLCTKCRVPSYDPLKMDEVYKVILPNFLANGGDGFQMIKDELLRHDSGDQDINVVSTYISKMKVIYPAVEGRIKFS
Kind of assay: cell-based or functional assay.

Assay [2] concerns the target T2, Mouse CD73 antigen (mouse, UniProt Q61503 29-549, limits assumed).
T2 construct: Antigen used as analyte in SPR
T2 sequence (looked up): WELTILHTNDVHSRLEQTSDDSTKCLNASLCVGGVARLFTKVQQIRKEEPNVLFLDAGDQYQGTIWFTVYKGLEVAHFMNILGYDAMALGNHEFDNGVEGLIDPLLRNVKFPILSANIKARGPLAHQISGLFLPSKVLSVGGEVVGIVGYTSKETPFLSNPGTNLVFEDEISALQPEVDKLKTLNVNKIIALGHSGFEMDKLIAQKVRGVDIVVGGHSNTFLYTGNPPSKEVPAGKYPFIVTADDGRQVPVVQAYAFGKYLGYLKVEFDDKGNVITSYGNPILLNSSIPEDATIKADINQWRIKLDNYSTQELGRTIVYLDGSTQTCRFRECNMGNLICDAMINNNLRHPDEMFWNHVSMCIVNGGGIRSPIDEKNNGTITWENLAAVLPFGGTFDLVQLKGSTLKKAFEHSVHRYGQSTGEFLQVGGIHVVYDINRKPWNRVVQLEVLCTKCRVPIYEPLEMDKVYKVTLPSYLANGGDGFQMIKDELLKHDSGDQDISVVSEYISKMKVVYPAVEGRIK
Kind of assay: SPR (Biacore 8K), antibody captured on anti-human capture CM5 chip, antigen as analyte. The protocol:
(§1) The experimental method is as follows:
(§2) An Anti-Human Capture-CM5 chip (GE, #BR-1005-30) was prepared using coupling methods of a Human Antibody Capture Kit (GE, #BR-1008-39) and an amino coupling kit (GE, BR-1000-50). The chip was equilibrated at room temperature for about 20-30 min and loaded into a Biacore 8K instrument. The antigen and antibody were diluted to an experimental working concentration using an equilibration buffer. The antigen was diluted with an equilibrium buffer to 50 nM, and then diluted three-fold for seven concentration gradients, and two zero concentrations (i.e., the equilibrium buffer) and one repeat concentration (typically the lowest concentration repeat) were set. Experimental analysis was performed on 10 antigen concentrations (2 zero concentrations, 7 gradient concentrations, and 1 repeated concentration) in a cyclic manner according to an order of antibody, antigen, and regeneration. The antigen injection flow rate was 30 μL/min, the binding time was 120 s, and the dissociation time was 600 s. Following the analysis, the data was analyzed using the corresponding analysis program to confirm that there was no obvious reference binding. Using Kinetics and a 1:1 binding model, the data was fit to obtain the kinetic related parameters Ka, Kd, and KD values of the bispecific antibodies.
(In general: In SPR one partner is held on a chip, and binding of the other changes the refractive index at the surface.)

Assay [3] concerns the target T3, Mouse CD39 antigen (mouse, UniProt P55772 38-478).
T3 construct: Antigen used as analyte in SPR
T3 sequence (looked up): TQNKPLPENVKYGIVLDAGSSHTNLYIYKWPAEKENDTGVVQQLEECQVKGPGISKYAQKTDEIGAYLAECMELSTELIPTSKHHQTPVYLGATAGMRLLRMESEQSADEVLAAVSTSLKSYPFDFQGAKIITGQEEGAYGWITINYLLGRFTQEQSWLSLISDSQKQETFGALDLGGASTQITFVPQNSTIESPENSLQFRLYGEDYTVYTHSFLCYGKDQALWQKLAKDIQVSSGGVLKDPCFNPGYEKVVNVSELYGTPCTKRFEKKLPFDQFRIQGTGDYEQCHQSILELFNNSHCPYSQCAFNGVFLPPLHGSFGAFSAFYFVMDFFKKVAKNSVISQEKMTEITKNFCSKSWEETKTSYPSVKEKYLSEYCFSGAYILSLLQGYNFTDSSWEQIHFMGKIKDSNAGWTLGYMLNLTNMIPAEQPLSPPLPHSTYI
Described as above. The procedure: as §1, §2

B1: CD39/CD73 bispecific antibody 700035 (CD39-VHH-CD73-IgG) (bispecific antibody)
heavy: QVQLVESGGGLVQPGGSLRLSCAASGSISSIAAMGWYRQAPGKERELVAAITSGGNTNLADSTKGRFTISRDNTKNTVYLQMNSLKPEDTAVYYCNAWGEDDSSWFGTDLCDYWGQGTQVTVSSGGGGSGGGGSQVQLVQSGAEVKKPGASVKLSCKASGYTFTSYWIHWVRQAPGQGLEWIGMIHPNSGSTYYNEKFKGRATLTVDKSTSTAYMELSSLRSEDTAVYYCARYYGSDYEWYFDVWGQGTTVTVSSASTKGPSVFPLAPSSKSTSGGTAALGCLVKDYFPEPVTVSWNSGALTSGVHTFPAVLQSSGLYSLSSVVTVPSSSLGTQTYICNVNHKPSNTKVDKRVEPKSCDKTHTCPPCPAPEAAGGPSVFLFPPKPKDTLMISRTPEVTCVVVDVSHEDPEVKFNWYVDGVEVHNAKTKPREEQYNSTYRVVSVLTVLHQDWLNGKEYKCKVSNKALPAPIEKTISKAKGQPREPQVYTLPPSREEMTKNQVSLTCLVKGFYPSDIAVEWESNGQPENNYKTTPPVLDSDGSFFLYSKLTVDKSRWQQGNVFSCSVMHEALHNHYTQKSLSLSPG
light: DIQMTQSPSSMSASVGDRVTITCKASQNVRTAVVWYQQKPGKAPKALIYLASNRHTGVPDRFSGSGSGTDFTLTISSLQPEDFATYFCLQHWNYPYTFGQGTKLEIKRTVAAPSVFIFPPSDEQLKSGTASVVCLLNNFYPREAKVQWKVDNALQSGNSQESVTEQDSKDSTYSLSSTLTLSKADYEKHKVYACEVTHQGLSSPVTKSFNRGEC
In the case of B1, the “EC50 (µg/mL), inhibition of enzyme activity of membrane CD73 on CHOK1-huCD73-3F4 cells (CellTiter Glo)” value in assay [1] amounted to 0.615 µg/mL. Further, the binding result in assay [2] and in assay [3] was “no binding (tested: 50 nM (highest antigen concentration))” in each case.
